Measurements: PMC12389326, “The Impact of the Injected Mass of the Gastrin-Releasing Peptide Receptor Antagonist on Uptake in Breast Cancer: Lessons from a Phase I Trial of [^99mTc]Tc-DB8” (Pharmaceutics, 2025)

Legend:
[1] = set-up: species or system human; details: in vivo
Procedure: (§1) Dosimetry was evaluated as described in [44]. Briefly, regions of interest (ROI) were drawn over organs of interest and over the whole body on the anterior and posterior whole-body images of patients injected with [^99mTc]Tc-DB8; a geometric mean of counts at 2, 4, 6, and 24 h was calculated for each ROI. To assess elimination kinetics in blood, a ROI was placed over the heart. For quantification, a known activity of Tc-99m in a water-filled phantom in combination with Chang’s correction was used. Data were fitted by single exponential functions and residence time was calculated as areas under fitted curves using GraphPad Prism 8.0 (GraphPad Software, San Diego, CA, USA). Absorbed doses were calculated by OLINDA/EXM 1.1 using Adult Female phantom.

clinical = assay: clinical; set-up: species or system human; details: in vivo; for tissue uptake dose at 4 h / tissue uptake dose at 6 h / tissue uptake dose at 24 h / tissue uptake dose at 2 h: human, SD
Procedure: Imaging was performed using a Siemens Symbia Intevo Bold scanner equipped with a high-resolution, low-energy collimator. Anterior and posterior planar whole-body imaging (at a scan speed of 12 cm/min, 1024 × 256 pixel matrix) was performed at 2, 4, 6, and 24 h after injection of [^99mTc]Tc-DB8. SPECT/CT scans (SPECT: 60 projections, 20 s each, stored in 256 × 256 pixel matrix/CT: 130 kV, effective 36 mAs) covering the area from the neck to liver were performed 2, 4, and 6 h after injection of [^99mTc]Tc-DB8. SPECT images were reconstructed using xSPECT (Siemens) protocol based on the ordered subset conjugate gradient (OSCG) method (24 iterations, 2 subsets) with a 3D Gaussian FWHM 10 mm filter (Soft Tissue). The images were processed using the proprietary software package Syngo.via Workstation (Siemens Healthineers).
as §1

[2] = cited from earlier work
Procedure: The injected activities were selected to enable good counting statistics, permitting accurate dosimetry calculations up to 24 h after injection. […] Considering that the clear SPECT visualization was already observed 2 h after injection, the injected activ ...

[3] = 40 ug, Uptake in Liver (decay-corrected)
[4] = 40 ug, Uptake in Lungs (decay-corrected)
[5] = 40 ug, Uptake in Pancreas (decay-corrected)
[6] = 40 ug, total radioactivity, Uptake in Breast (decay-corrected)
[7] = 40 ug, total radioactivity, Uptake in Kidney (decay-corrected)
[8] = 40 ug, total radioactivity, Uptake in Small Intestine (decay-corrected)
[9] = 80 ug, Uptake in Liver (decay-corrected)
[10] = 80 ug, Uptake in Lungs (decay-corrected)
[11] = 80 ug, Uptake in Pancreas (decay-corrected)
[12] = 80 ug, total radioactivity, Uptake in Breast (decay-corrected)
[13] = 80 ug, total radioactivity, Uptake in Kidney (decay-corrected)
[14] = 80 ug, total radioactivity, Uptake in Small Intestine (decay-corrected)
[15] = 120 ug, Uptake in Liver (decay-corrected)
[16] = 120 ug, Uptake in Lungs (decay-corrected)
[17] = 120 ug, Uptake in Pancreas (decay-corrected)
[18] = 120 ug, total radioactivity, Uptake in Breast (decay-corrected)
[19] = 120 ug, total radioactivity, Uptake in Kidney (decay-corrected)
[20] = 120 ug, total radioactivity, Uptake in Small Intestine (decay-corrected)

CCNC(=O)[C@H](CC(C)C)NC(=O)[C@H](Cc1c[nH]cn1)NC(=O)CNC(=O)[C@@H](NC(=O)[C@H](C)NC(=O)[C@H](Cc1c[nH]c2ccccc12)NC(=O)[C@H](CCC(N)=O)NC(=O)[C@@H](Cc1ccccc1)NC(=O)COCC(=O)Nc1ccc(CNC(=O)C(CNCCN)CNCCN)cc1)C(C)C [[^99mTc]Tc-DB8, metal not drawn]
Absorbed dose, Urinary bladder wall [1]: 0.02 ± 0.01 mGy/MBq | Absorbed equivalent dose [1]: 4.6 mSv | Effective dose [1]: 0.009–0.014 mSv/MBq | tissue uptake dose at 4 h (clinical; [3]): 2.1 ± 1.1 %ID | tissue uptake dose at 6 h (clinical; [3]): 1.6 ± 0.8 %ID | tissue uptake dose at 24 h (clinical; [3]): 0.8 ± 0.4 %ID | tissue uptake dose at 2 h (clinical; [4]): 3.8 ± 0.5 %ID | tissue uptake dose at 4 h (clinical; [4]): 2.3 ± 0.3 %ID | tissue uptake dose at 6 h (clinical; [4]): 1.6 ± 0.2 %ID | tissue uptake dose at 24 h (clinical; [4]): 0.7 ± 0.1 %ID | tissue uptake dose at 2 h (clinical; [5]): 1.5 ± 0.5 %ID | tissue uptake dose at 4 h (clinical; [5]): 0.9 ± 0.4 %ID | tissue uptake dose at 6 h (clinical; [5]): 0.7 ± 0.3 %ID | tissue uptake dose at 24 h (clinical; [5]): 0.35 ± 0.09 %ID | tissue uptake dose at 2 h (clinical; [6]): 4.2 ± 1.1 %ID | tissue uptake dose at 4 h (clinical; [6]): 2.4 ± 0.4 %ID | tissue uptake dose at 6 h (clinical; [6]): 1.7 ± 0.3 %ID | tissue uptake dose at 24 h (clinical; [6]): 0.7 ± 0.1 %ID | tissue uptake dose at 2 h (clinical; [7]): 3.1 ± 1.9 %ID | tissue uptake dose at 4 h (clinical; [7]): 2.1 ± 0.9 %ID | tissue uptake dose at 6 h (clinical; [7]): 1.6 ± 0.5 %ID | tissue uptake dose at 24 h (clinical; [7]): 0.9 ± 0.2 %ID | tissue uptake dose at 2 h (clinical; 40 ug, total radioactivity, Uptake in Liver (decay-corrected)): 3 ± 1.6 %ID | tissue uptake dose at 2 h (clinical; [8]): 4.2 ± 1.6 %ID | tissue uptake dose at 4 h (clinical; [8]): 2.8 ± 1.1 %ID | tissue uptake dose at 6 h (clinical; [8]): 2.1 ± 0.7 %ID | tissue uptake dose at 24 h (clinical; [8]): 1.4 ± 0.3 %ID | tissue uptake dose at 2 h (clinical; [9]): 3.3 ± 0.9 %ID | tissue uptake dose at 4 h (clinical; [9]): 2.2 ± 0.8 %ID | tissue uptake dose at 6 h (clinical; [9]): 1.4 ± 0.7 %ID | tissue uptake dose at 24 h (clinical; [9]): 0.7 ± 0.3 %ID | tissue uptake dose at 2 h (clinical; [10]): 5.9 ± 1.6 %ID | tissue uptake dose at 4 h (clinical; [10]): 4.1 ± 1.6 %ID | tissue uptake dose at 6 h (clinical; [10]): 2.8 ± 1.2 %ID | tissue uptake dose at 24 h (clinical; [10]): 0.9 ± 0.4 %ID | tissue uptake dose at 2 h (clinical; [11]): 1.2 ± 0.3 %ID | tissue uptake dose at 4 h (clinical; [11]): 0.8 ± 0.3 %ID | tissue uptake dose at 6 h (clinical; [11]): 0.6 ± 0.3 %ID | tissue uptake dose at 24 h (clinical; [11]): 0.2 ± 0.1 %ID | tissue uptake dose at 2 h (clinical; [12]): 6.2 ± 1.9 %ID | tissue uptake dose at 4 h (clinical; [12]): 3.4 ± 1.7 %ID | tissue uptake dose at 6 h (clinical; [12]): 2.7 ± 1.2 %ID | tissue uptake dose at 24 h (clinical; [12]): 0.8 ± 0.4 %ID | tissue uptake dose at 2 h (clinical; [13]): 5.1 ± 2.1 %ID | tissue uptake dose at 4 h (clinical; [13]): 2.8 ± 0.9 %ID | tissue uptake dose at 6 h (clinical; [13]): 2.2 ± 0.9 %ID | tissue uptake dose at 24 h (clinical; [13]): 1.2 ± 0.8 %ID | tissue uptake dose at 2 h (clinical; [14]): 3.4 ± 1.1 %ID | tissue uptake dose at 4 h (clinical; [14]): 2.2 ± 0.6 %ID | tissue uptake dose at 6 h (clinical; [14]): 1.6 ± 0.6 %ID | tissue uptake dose at 24 h (clinical; [14]): 0.7 ± 0.4 %ID | tissue uptake dose at 2 h (clinical; [15]): 2.2 ± 0.9 %ID | tissue uptake dose at 4 h (clinical; [15]): 1.5 ± 0.7 %ID | tissue uptake dose at 6 h (clinical; [15]): 1.1 ± 0.5 %ID | tissue uptake dose at 24 h (clinical; [15]): 0.5 ± 0.2 %ID | tissue uptake dose at 2 h (clinical; [16]): 3.5 ± 1.3 %ID | tissue uptake dose at 4 h (clinical; [16]): 2 ± 1 %ID | tissue uptake dose at 6 h (clinical; [16]): 1.6 ± 0.7 %ID | tissue uptake dose at 24 h (clinical; [16]): 0.6 ± 0.2 %ID | tissue uptake dose at 2 h (clinical; [17]): 0.8 ± 0.2 %ID | tissue uptake dose at 4 h (clinical; [17]): 0.5 ± 0.1 %ID | tissue uptake dose at 6 h (clinical; [17]): 0.34 ± 0.09 %ID | tissue uptake dose at 24 h (clinical; [17]): 0.15 ± 0.06 %ID | tissue uptake dose at 2 h (clinical; [18]): 3.5 ± 1.1 %ID | tissue uptake dose at 4 h (clinical; [18]): 2 ± 0.8 %ID | tissue uptake dose at 6 h (clinical; [18]): 1.3 ± 0.5 %ID | tissue uptake dose at 24 h (clinical; [18]): 0.6 ± 0.2 %ID | tissue uptake dose at 2 h (clinical; [19]): 3.5 ± 1.6 %ID | tissue uptake dose at 4 h (clinical; [19]): 2.2 ± 1 %ID | tissue uptake dose at 6 h (clinical; [19]): 1.7 ± 0.8 %ID | tissue uptake dose at 24 h (clinical; [19]): 1.1 ± 0.4 %ID | tissue uptake dose at 2 h (clinical; [20]): 3.3 ± 1 %ID | tissue uptake dose at 4 h (clinical; [20]): 2.1 ± 0.7 %ID | tissue uptake dose at 6 h (clinical; [20]): 1.8 ± 0.6 %ID | tissue uptake dose at 24 h (clinical; [20]): 1.1 ± 0.4 %ID | Route of elimination (clinical): predominantly via the kidneys

[^18F]FDG
Absorbed dose after injection for visualization of breast cancer [2]: 2.5–4.3 mSv
